Consider 30 sequences from the nanobody polyreactivity screen of Harvey et al. (2022).

The data set in a line: yeast display, Sf9 membrane polyspecificity reagent, FACS + sequencing; frameworks hold sequencing errors. A digest of the protocol:
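Using colony PCR, genes from sorted yeast display clones were amplified, then sequenced on MiSeq at 2 × 250 and filtered by CDR length. The clones had been stained with 10% biotinylated, detergent-solubilized Sf9 membrane reagent for 1 hour at 4 °C and sorted by FACS into low and high (top ~1%) gates on anti-HA and streptavidin fluorescence. Polyreactivity labels come from the gate of origin.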
As for “QVQLVESGGGLVQAGGSLRLSCAASGSTFGENAMGWYRQAPGKERELVAAISDSGGDTYYADSVKGRFTISRDNAKNTVYLQMNSLKPEDTAVYYCAADRYGYWYAYYSWGQGTQVTVSS”, the “polyreactivity (PSR sort gate)” value is “low polyreactivity”.
Consider “QVQLVESGGGLVQAGGSLRLSCAASGSTFGFNAMGWYRPAPGKEREFVAAINTSGGNTYYADSVKGRFTISRDNAKNTVYLQMNSLKPEDTAVYYCNAREGHLYGYPYGYWGQGTQVTVSS”, for which the “polyreactivity (PSR sort gate)” value is on record as “low polyreactivity”.
Take “QVQLVESGGGLVQAGGSLRLSCAASGSTFGFNAMGWYRQAPGKERELVAAITFSGGTTYYADSVKGRFTISRDNAKNTVYLQMNSLKPEDTAVYYCNADVKRDRVWGGDYWGQGTQVTVSS”: the “polyreactivity (PSR sort gate)” value is reported as “low polyreactivity”.
The result for “QVQLVESGGGLVQAGGSLRLSCAASGSTFGFYDMGWYRQAPGKERELVAAITSGDITYADSVKGRFTISRDNAKNTVYLQMNSLKPEDTAVYYCATTSYGYWFGYIPEVDYWGQGTQVTVSS” reads “low polyreactivity”; that for “QVQLVESGGGLVQAGGSLRLSCAASGSTFGFYTMGWYRQAPGKERELVAAISWSTGRTYYADSVKGRFTISRDNAKNTVYLQMNSLKPEDTAVYYCAARALDKYRFGGRYDYWGQGTQVTVSS”, “low polyreactivity”.
The result for “QVQLVESGGGLVQAGGSLRLSCAASGSTFGGNAMGWYRQAPGKEREFVAAISYSGGSTYYADSVKGRFTISRDNAKNTVYLQMNSLKPEDTAVYYCAATGEPPVFRNGYWGQGTQVTVSS” reads “low polyreactivity”.
On to “QVQLVESGGGLVQAGGSLRLSCAASGSTFGGNAMGWYRQAPGKERELVAAISSTGGSTYYADSVKGRFTISRDNAKNTVYLQMNSLKPEDTAVYYCAALYHWTYDYWGQGTQVTVSS”, for which the “polyreactivity (PSR sort gate)” value is “low polyreactivity”.
The result for “QVQLVESGGGLVQAGGSLRLSCAASGSTFGGNGMGWYRQAPGKEREFVATITWRSGSTYYADSVKGRFTISRDNAKNSVYLQMNSLKPEDSAVYYCAKYTSSRRNTWYYYWGQGTQVTVSS” reads “high polyreactivity”.
Then “QVQLVESGGGLVQAGGSLRLSCAASGSTFGGYAMGWNRQAPGKEREWVAAISQSGTRTYYADSVKGRFTISRDNAKNTVYLQMNSLKPEDTAVYYCAAVKRFRKYDYWGQGTQVTVSS”, with “high polyreactivity”; and “QVQLVESGGGLVQAGGSLRLSCAASGSTFGGYAMGWYRPAPGKERELVAAISGSGVRTYYADSVKGRFTISRDNAKNTVYLQMNSLKPEDTAVYYCAKRVRYPGDRYYYWGQGTQVTVSS”, with “high polyreactivity”.
Turning to “QVQLVESGGGLVQAGGSLRLSCAASGSTFGGYAMGWYRQAPGKERELVAAISGSGVRTYYADSVKGRFTISRDNAKNTVYLQMNSLKPEDTAVYYCAKRVRYPGDRYYYWGQGTQVTVSS”, the “polyreactivity (PSR sort gate)” value is given as “high polyreactivity”.
Then “QVQLVESGGGLVQAGGSLRLSCAASGSTFGGYAMGWYRQAPGKERELVAAISKSGGSTYYADSVKGRFTISRDNAKNTVYLQMNSLKPEDTAVYYCNAPYKRSPYNYWGQGTQVTVSS”, with “high polyreactivity”.
Regarding “QVQLVESGGGLVQAGGSLRLSCAASGSTFGGYTMGGYRQAPGKERELVADITSSGSTNYADSLKGRFTISRDNAKNSVYLQMNSLKPEDTAVYYCAVRTYPGRFWYWGVDMVYWGQGTQVTVSS”, the “polyreactivity (PSR sort gate)” value was “low polyreactivity”.
Turning to “QVQLVESGGGLVQAGGSLRLSCAASGSTFGGYTMGWYRQAPGKERELVADITSSGSTNYADSLKGRFTISRDNAKNTVYLQMNSLKPEDTAVYYCAVRTYPGRFWYWGVDMDYWGQGTQVTVSS”, the “polyreactivity (PSR sort gate)” value is “low polyreactivity”.
In the case of “QVQLVESGGGLVQAGGSLRLSCAASGSTFGHNAMGWYRQAPGKERELVAAIDSGDGTTYADSVKGRFTISRDNAKNTVYLQMNSLKPEDSAVYYWNVDLTTVGLWYYYRPGYDFWGQGTQVTVSS”, the “polyreactivity (PSR sort gate)” value was “low polyreactivity”.
As to “QVQLVESGGGLVQAGGSLRLSCAASGSTFGHYAMGWSRQAPGKERELVARITSDDSTSYADSVKGRFTISRDNAKNTVYLQMNSLKPEDTAVDYCAARYYSYSWHPARYQGRYSWGQGTQVTVSS”, the “polyreactivity (PSR sort gate)” value is given as “high polyreactivity”.
As for “QVQLVESGGGLVQAGGSLRLSCAASGSTFGHYAMGWYIQAPGKERELVAGITDTDNHELRRLCEGRFTISRDNAKNTVYLQMNSLKPEDTAVYYCNADDTYYPLCGITGYDYWGQGTQVTVSS”, the “polyreactivity (PSR sort gate)” value is given as “low polyreactivity”.
As to “QVQLVESGGGLVQAGGSLRLSCAASGSTFGHYAMGWYRPAPGKERELVAGITDTDNHELRRLCEGRFTISRDNAKNTVYLQMNSLKPEDTAVYYCIADDTYYPLGGITGYDDWGQGTQVTVSS”, the “polyreactivity (PSR sort gate)” value is reported as “low polyreactivity”.
The result for “QVQLVESGGGLVQAGGSLRLSCAASGSTFGINAMGWYRQAPGKERELVAAISRRGGSTYYADSVKGRFTISRDNAKNSVYLQMNSLKPEDTAVYYCAARYRNHQYDYWGQGTQVTVSS” reads “high polyreactivity”; that for “QVQLVESGGGLVQAGGSLRLSCAASGSTFGINAMGWYRQAPGKERELVASITRRGGSTYYADSVKGRFTISRDNAKNTVYLQMNSLKPEDTAVYYCNKTYRYGTPLYDYWGQGTQVTVSS”, “high polyreactivity”.
Then “QVQLVESGGGLVQAGGSLRLSCAASGSTFGINDMGWSRQAPGKEREFVAAISSTTDSTRYADSVKGRFTISRDNAKNTVYLQMNSLKPEDTAVYYCAAAPQFTFGVGYWGQGTQVTVSS”, with “low polyreactivity”; and “QVQLVESGGGLVQAGGSLRLSCAASGSTFGIYAMGWYRQAPGKERELVAAIRKNGGSTYYADSVKGRFTISRDNAKNTVYLQMNSLKPEDTAVYYCNADYWIYPSYDYWGQGTQVTVSS”, with “low polyreactivity”.
Regarding “QVQLVESGGGLVQAGGSLRLSCAASGSTFGIYAMGWYRQAPGKERELVAAISRSGDSTYYADSVKGRFTISRDNAKNTVYLQMNSLKPEDTAVYYCAADSFRLRYWAVTTHRVQYDYWGQGTQVTVSS”, the “polyreactivity (PSR sort gate)” value is recorded as “low polyreactivity”.
As for “QVQLVESGGGLVQAGGSLRLSCAASGSTFGKNALGWYRQAPGKERELVAAITRRGGSTNYADSVKGRFTISRDNAKNTVYLQMNSLKPEDTAVYYCNAGYGYGYPKYDYWGQGTQVTVSS”, the “polyreactivity (PSR sort gate)” value is recorded as “high polyreactivity”.
Then “QVQLVESGGGLVQAGGSLRLSCAASGSTFGKNAMGWYRPAPGKERELVAAITSSGGRTYYADSVKGRFTISRDNAKNTVYLQMNSLKPEDTAVYYCNAVTRRRSLGPWPVEYDYWGQGTQVTVSS”, with “high polyreactivity”; and “QVQLVESGGGLVQAGGSLRLSCAASGSTFGKYAMGWYRQAPGKERELVASISRSGASTYYADSVKGRFTISRDNAKNTVYLQMNSLKPEDTAVYYCNKARNPEGYWRYDYWGQGTQVTVSS”, with “high polyreactivity”; and “QVQLVESGGGLVQAGGSLRLSCAASGSTFGKYAMGWYRQAPGKERELVATITVSGGNTNYADSVKGRFTISRDNAKNTVYLQMNSLKPEDTAVYYCNAGGRYHAPSGDYWGQGTQVTVSS”, with “low polyreactivity”.
The result for “QVQLVESGGGLVQAGGSLRLSCAASGSTFGLNTMGWYRQAPGKERELVAGITWSGGTTYYADSVKGRFTISRDNAKNTVYLQMNSLKPEDTAVSYCAAAVSDHYWYSRAYYYWGQGTQVTVSS” reads “high polyreactivity”.
The result for “QVQLVESGGGLVQAGGSLRLSCAASGSTFGLYVMGWYRQAPGQERELVAAISRRGGSTYYADSVKGRFTSSRDNAKNTVYLQMNSLKPEDTAVYYCNTYYRGGPYDVAYDYWGQGTQVTVSS” reads “high polyreactivity”; that for “QVQLVESGGGLVQAGGSLRLSCAASGSTFGNNAMGWYRQAPGKERELVATIDDTTVSTNYADSVKGRFTISRDNAKNSVYLQMNSLKPEDTAVYYCAADDVDGSPYDYWGQGTQVTVSS”, “low polyreactivity”.
